We go through two molecules from US20240010687A1 (University of Washington, published 2024).

The target in one experiment is T1, A15.5R82_Axle (C3-C3).
T1 construct: C3 homotrimeric axle with DHR arms; also called C3 axle
T1 chain: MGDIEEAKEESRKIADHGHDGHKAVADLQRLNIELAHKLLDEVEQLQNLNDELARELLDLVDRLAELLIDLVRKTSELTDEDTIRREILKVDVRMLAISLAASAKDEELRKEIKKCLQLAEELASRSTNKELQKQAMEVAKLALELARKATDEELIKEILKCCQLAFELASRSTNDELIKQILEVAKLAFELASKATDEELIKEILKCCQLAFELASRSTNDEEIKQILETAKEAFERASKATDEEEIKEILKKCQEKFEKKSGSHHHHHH
Nature of the experiment: single particle cryoEM of the assembled rotor (6.5 Å). How it is done: Multiple datasets were collected for each design and combined early on during processing. See table 1 and processing flowcharts for details. Briefly, images were manually curated to remove poor quality acquisitions such as bad ice or large regions of carbon. Dose-weighting and image alignment of all 50 frames was carried out using MotionCor2 (56) with 5×5 patch or with cryosparc v2 patch alignment tool with default parameters. Super-resolution krios data was binned 2X during alignment. Initial CTF parameters were estimated using CTFfind4 (57). Particle picking was done with a gaussian blob picker and in some cases followed by a template picker. Particles were extensively classified in 2D to remove junk particles and designs which may not have been intact or were damaged, yielding in some cases relatively few particles. […] In addition, the expected motion of the rotors may have introduced further heterogeneity, limiting classification efforts. Starting models for all designs were always obtained ab initio, despite clear evidence of the expected design in 2D. […] FSC 0.143 curves were generated by exporting half maps to relion for post-process. […] For density modification in Phenix (59), we used as input the exported half maps from cryosparc with default params at 100 bins and local filtering with a factor of 5. […] Directional FSC calculated using remote 3DF SC processing tool. […]

Experiment [1] concerns the target T2, A113_c2arms9_Axle (D3-C5).
T2 construct: De novo designed D3 homohexameric axle; For biolayer interferometry it was Avi-tagged and biotinylated; also called D3 axle; axle of the D3-C5 rotor
T2 chain: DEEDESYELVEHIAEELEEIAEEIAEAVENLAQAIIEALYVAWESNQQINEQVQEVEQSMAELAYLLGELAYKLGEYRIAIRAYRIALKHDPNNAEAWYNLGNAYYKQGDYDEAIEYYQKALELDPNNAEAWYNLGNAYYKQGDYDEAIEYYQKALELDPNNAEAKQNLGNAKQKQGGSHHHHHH
The experiment can be described thus: EM, biolayer interferometry, SEC and SAXS of the assembled rotor. How it is done:
FIG. 13. Biolayer interferometry assays measuring in vitro assembly of ring and axle parts into a full rotary system. For each 6 designs, the equilibrium binding curves from biolayer interferometry binding assays is shown on the left and the corresponding Biolayer interferometry kinetic binding traces shown on the right. Biotinylated axles were immobilized on the tip and the binding in a solution of fre rings was measured. For both D3-C5 and D3-C3, a fresh ring solution was prepared by buffer exchange from citrate buffer to TBS with reducing agent, and immediately used for binding assays.
Protein samples were purified by SEC in 25 mM Tris pH 8.0, 25 mM NaCl and 1% glycerol; elution fractions corresponding to the protein were further concentrated using 3K protein concentrators (Millipore Sigma) and the flow-through was used as blank for buffer subtraction. SAXS Scattering measurements were performed at the SIBYLS 12.3.1 beamline at the Advanced Light Source. […] Collected data were processed using the SAXS FrameSlice™ online server and analysed using the ScÅtter software package(23). […]

B1: A15.5R82_Ring (C3-C3) (designed binder)
chain: MGVEELLLLARAAHHSGTTVEEAYKLAKKLGISVKELLLLARAAHNSGTTVEEAYKLALKLGISVEELLLLAKAAHYSGTTVEEAYKLALELGISVRELLLLAKAAHFAGRTVREAYALELALGALRLEDRARELIKEAEKKGDPEKLREALEALEEAVRLVEEAIKLRPDMDLAVEIAVRLARMLKRVAELLQELAKKTGDPELLKLALRALEVAVRAVELAIKSNPDNDEAVETAVRLARELKKVAEELQERAKKTGDPELLKLALRALEVAVRAVELAIKSNPDNEEAVETAKRLAEELRKVAELLEERAKETGDPELQELAKRAKEVADRARELAKKSGSHHHHHH
notes: C3 ring of three subunits, each fused to DHR82; also called C3 ring
B1: the binding result in the experiment with A15.5R82_Axle (C3-C3) is listed as “binds”.

B2: A113_c2arms9_Ring (D3-C5) (designed binder)
chain: MGDRSEHAKKLKTFLENLRRHLDRLDKHIKQLRDILSENPEDERVKDVIDLSERSVRIVKTVIKIFEDSVRELEKAILWLAEELAKSPDPEDLKRAVELARAVIEANPGSNLSRKAMEIIERAARELSKLPDPEAQRTAIEAASQLATMAAATGNTDQVRRAAELMVEIARLAGTEEAQDLALDALLDVLETALQIATKIIDDANKLLEKLRRSERKDPKVVETYVELLKRHEEAVRLLLEVARVHEELVRFTIIEEKVRSPDCEDIRDAVREAEELLRENPSEMAEELLRRAIEAAVRCPDCEAIREAVRAAEELLRENPSTEAEELLRRAIEAAVRCPDCEAIREAVRAAEELLRENPSEEAKELLRRAIESAKKCPDPEAQREAKRAEEELRKEGSHHHHHH
notes: De novo designed C5 homopentameric ring; also called C5 ring; ring of the D3-C5 rotor
For B2, the binding result in experiment [1] is recorded as “binds”.
